Portion of CAR19-NK cells that acquired CD19 on their surface (trogocytosis) within minutes of co-culture with Raji targets, flow cytometry data for 1 substance are collected here from US20240261332A1.

The assay concerns the target CD19 (human) (UniProt P15391). The assay is described as follows: cell-based or functional assay.
UniProt P15391, sequence (P15391 20-556): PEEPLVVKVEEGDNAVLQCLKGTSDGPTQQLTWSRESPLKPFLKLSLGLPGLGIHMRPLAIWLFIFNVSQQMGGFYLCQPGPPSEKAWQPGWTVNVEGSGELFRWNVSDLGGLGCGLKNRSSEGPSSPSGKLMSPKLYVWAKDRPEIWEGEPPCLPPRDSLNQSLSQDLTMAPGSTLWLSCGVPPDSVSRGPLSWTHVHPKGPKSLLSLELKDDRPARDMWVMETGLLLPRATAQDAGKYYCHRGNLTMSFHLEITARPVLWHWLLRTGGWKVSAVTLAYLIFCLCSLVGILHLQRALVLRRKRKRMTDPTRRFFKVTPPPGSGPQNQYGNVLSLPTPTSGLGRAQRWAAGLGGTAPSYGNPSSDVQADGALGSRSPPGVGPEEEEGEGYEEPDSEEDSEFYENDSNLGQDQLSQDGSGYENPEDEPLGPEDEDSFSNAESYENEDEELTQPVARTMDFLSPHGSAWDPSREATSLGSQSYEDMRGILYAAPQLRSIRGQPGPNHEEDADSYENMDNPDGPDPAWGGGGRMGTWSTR

In the case of “anti-CD19 activating CAR (19scFv.CD28.zeta) (from UniProt P10747 153-220; P20963 52-164)”, the portion of CAR19-NK cells that acquired CD19 on their surface (trogocytosis) within minutes of co-culture with Raji targets, flow cytometry was determined as 75%.
